According to the RNAGym collection of RNA variant scans (doi:10.1073/pnas.2313332121):
Variants at the floor of the assay were thinned out.

B1: TPR 5TU (parent)
chain: GGAUCUUCUCGAUCUAACAAAAAAGACAAAUCUGCCACAAAGCUUGAGAGCAUCUUCGGAUGCAGAGGCGGCAGCCUUCGGUGGCGCGAUAGCGCCAACGUUCUCAACUAUGACACGCAAAACGCGUGCUCCGUUGAAUGGAGUUUAUCAUG

Variants of: B1
Experiment: polymerase ribozyme fitness, log enrichment relative to wild type (log ratio); higher = more active; in vitro selection for triplet polymerase activity
How it was run: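 Fitness measures genotype enrichment against wild-type enrichment on a logarithmic scale, with inverse-variance-weighted averaging of replicates. The logarithm is base 2, and genotypes were kept only with ≥10 input reads and ≥1 read per output in Illumina sequencing. The sequenced libraries came from one triplicate in vitro selection round, including frozen incubation at −7 °C, of PCR-built, transcribed mutant libraries of each subunit of a heterodimeric triplet polymerase ribozyme.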

Row | Variant | polymerase ribozyme fitness (log ratio)
1 | A91U U111G U127C | ≤ -4.2
2 | C93A A122U | -2.45
3 | G92A C96A | -3.11
4 | C87A G141C | ≤ -4.2
5 | C87U C99G U127A | ≤ -4.2
6 | C85G G128A | ≤ -4.2
7 | A89G G126C | 0.0965
8 | C85U A106U A113C A115U | ≤ -4.2
9 | C85U A122U | -0.795
10 | C85U U101C | -0.749
11 | U90A C105G | ≤ -4.2
12 | C85U A119C | -0.984
13 | C85U A119G | -1.31
14 | C87A A98U | -4.12
15 | C85U A89U | -0.431
16 | G88U C108A G128C C132U A137U | ≤ -4.2
17 | G92U C95U A147G U148A | -3.45
18 | C85G G92C G128A | ≤ -4.2
19 | U90A C131A G143A | -4.19
20 | C87G G100C | -3.97
21 | G92A A147U | -1.84

Row | Variant | polymerase ribozyme fitness (log ratio)
22 | A91C G100U | ≤ -4.2
23 | G86U G152U | ≤ -4.2
24 | G88C U144G | -3.7
25 | C87A U145A | -4.17
26 | G92A C114U | -3.92
27 | C93A G100U U102G G117U A138C | ≤ -4.2
28 | G86A C93G C99G U146A | -3.32
29 | A89C U101C U146A | 0.0757
30 | G88A C96U C108G | ≤ -4.2
31 | A91G U144C | -2.47
32 | C85U G88A | -3.73
33 | A91U A147C | ≤ -4.2
34 | C85G U144A C149U | -3.7
35 | A91U A97G A122U A147U | ≤ -4.2
36 | C85A U104A A115G | -3.42
37 | G86C C105G | -3.67
38 | C85U C99G U111C A142G | ≤ -4.2
39 | A91G A98G U130G C131A A150U | ≤ -4.2
40 | C85U G141A | -0.0572
41 | C87U G140A | -3.7
42 | A91G A147U | -1.52

Row | Variant | polymerase ribozyme fitness (log ratio)
43 | C93A G133C | -4.09
44 | U90A A119U G126A | ≤ -4.2
45 | G92U C125A | -1.82
46 | A91U C125A | -3.87
47 | C85G C103A | ≤ -4.2
48 | C85U U146C | -0.574
49 | C85U C95A | -0.427
50 | C85U U90C C103A | ≤ -4.2
51 | C87U C149A | -3.78
52 | G88C C118G G140A | ≤ -4.2
53 | C85U A119U A138C U145A | -3.86
54 | G86U C99U C103G C131G | ≤ -4.2
55 | A91G G141U | -1.92
56 | A91G G141C | -2.86
57 | G86A A89G | -3.55
58 | C85U A120G A150C | -3.75
59 | G88A C93G C96A A110G C123G | ≤ -4.2
60 | C93A C103A U135A A138G | ≤ -4.2
61 | C93A U127G | -4.05
62 | C87U A113U C116U | -1.99
63 | C85U G136A | 0.767

Row | Variant | polymerase ribozyme fitness (log ratio)
64 | G86C A97U A98U | -3.05
65 | C87U G88C | -3.83
66 | A89C C131A | -3.23
67 | C85G C87U | -3.28
68 | C85U C125A | -1.45
69 | C85U G86U C105U U135A A150C | ≤ -4.2
70 | G92C U127G | -3.67
71 | A91U G94U C96G A115G G141C | ≤ -4.2
72 | C87U G112A | -3.91
73 | C87A C95U G141C | -4.16
74 | A89C C93U C116U G128A | ≤ -4.2
75 | C85U C116U A147U | 0.541
76 | C85G U151C | -4.2
77 | C87A G126C | -4.16
78 | C87A G126U | ≤ -4.2
79 | C85G C123U G141A | -0.441
80 | G92C C114U U151G | -4.12
81 | C93A C125G | -2.62
82 | C85G A98U C129A U134C | -4.18
83 | C93G A113U | -4.11
